Assay: purified protein yield per well (BCA); higher = higher soluble expression
Protocol: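 Candidate PET hydrolases were expressed in E. coli C41(DE3) in 2 mL autoinduction cultures in 24-deep-well plates, Ni-bead purified and released by SUMO protease cleavage on an OT-2 robot. Yield per well was measured by BCA; values below 25 ug (0.1 mg/mL) are below the detection threshold. Melting temperature was measured by differential scanning fluorimetry with Sypro Orange, ramping from 25 C at 0.3 C/step.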

| Sequence | purified protein yield per well [µg] |
| --- | --- |
| APANPYERGPDPTEASVTAEKGPFTIERIDVPTGSGTGFNRGTIYAPTDTSQGTFGAIAVSPGFVSPQAWIDWYGPRLASQGFVVMTLETLNLMDVPDSRANQLLAALDYLTGKSTVKNRIDPARLAVMGHSMGGGATLRAAAERPALQAAIPLAPWHTDRDWQGVTVPTMIMGADNDFIAGVGAHAEPFYRNLTSAPEKAYLELRNAGHMSFNTPNTTIAKYGISWMKRFVDDDTRYDRFLCPAPRPGAAINEYRDTCPNG [TEP186] | < 25 |
| APAPATAAAADNPYERGPDPTEDSIEAARGPYDVAETSVSSWVVSGFGGGTVYYPRETDDGTFGAVAVAPGYTASQSSMAWLGPRLASQGFVVFTIDTLTRLDQPASRGRQLLAALDYLTERSAVRNRIDASRLGVMGHSMGGGGTLEAAADRPSLQAAVPLAPWNLDKTWGELRVPTMIIGADGDSIAPVSSHSEPFYESLPGGLDRAYLELNNADHFTPNLPDTTLAKYSLSWLKRFIDNDTRYEQFLCPLPRPGWYIEEYRGTCPHLS [TEP124] | < 25 |
| APGPSAPCADCSRGPNPTVASLQSRSGPFTVSTFSVSGYLRGFGNSTVHYPTNATGKMGAIAVIPGYLSYEDSIRWWGPRLASHGFVVITMNTNTIYDQPDSRATQLSRALDYVIEQSNSRSSPISGKVDSTRLGAIGWSMGGGGSLKLSTERSLNAIIPQAPYYAGLNRFNTINTPTMILACSADVVAPVASHASPFYNRIPDATPKAFLEIYGGSHFCANSGYPNEDLLGMYGISWMKRFIDFDSRYSQFLCGPNHAADLRVSEYRENCNY [ESM165] | < 25 |
| APPVAGPYQRGPAPTEEVLVAARGPFAVTQTRMAAGQGTGAGTVHHPTDASQGTFGAVAVMPGFMGTEKSIRLYGPLLASHGFVVLTLSSVRRADFPDQRADQLLAALDRLVAGPAKGLIDAERLAVVGHSMGGGATLRAAARRPGLKAAVPLAPWHVRRDWRSVRVPTLIFGSENDRVAPVDKHAEPFYASLTRAPEKAYVELRDGGHLSFNTANPVIAKYTVSWLKRYVDDDVRYDPFLCPGPAFPSPTIREYRGTCPS [DP060] | < 25 |
| APQAPENPYQRGPAPTEQSIVADRGSFEVERISVGSWSGPGFNKGTIYAPKDRSQGTFGAIAVSPGFVSPEYLISWYGERLASRGFVVMTIETTTLYDQPAQRGDQLLAALDYVVSDDSPVRDRVDPNRLAVMGHSMGGGGTLHAVKERKSLKAAVPLMPWNLFTDWGDVQTPTMIIGAQNDLIASVGLHSEPFYNSLRSAREKAYLEMDGAGHLVANSPNDTIAKYTIAWMKRYVDNDTRYEQFLCPAPSRDRNISEYRDTCPGS [DP015] | < 25 |
| APVAVAPAAVPVHGVDPTDANLRQPVGDLAFSQVTIADSQTPGFGAATIYYPDDTTHGTYGGVAVVPGYTSPQSAVAWLGPRLASRGFVVITIATNSIYDQPTTRGRELLSALDYLTTSSPAAVRQRLDPQRLAVMGHSMGGGGALYAVSQRTTIKAAVPLAPYNQDKTWQTVKTPTMLMAGSADNVAGIGTFSRPFYRSMTGARERALVNVQGADHGTFVRENATIGKYATAWLKRFVDEDTRYDQFLCPAPTGDGLTEYTASCPNA [DP012] | < 25 |
| AQPQKGPDPTEQLVKSQTGPFDIARTSVPAGSGRGFNKGTLYYPTDTSQGAYAAVAVIPGFFEGEYTQSWFGPALASHGFVVFTLETHGLFDFPDQRGDQLIAALDWLVASSPVKDRVDPARLAVMGHSMGGGGTLAAANKRPSIKAAVALTPWHMTKRFPGIEAATMIIGAQSDSIASVSGHAEPMYAALTSPDEHAYVELTGGHFVTNSYTATNMRFILPWLKRFLDSDTRYSPFVCPGPAQDSTFVEYRNTCPV [TEP047] | < 25 |
| AQQTILQESFNSSLGSFTSAGSVSVGSSGALMRGSAYSTDGRITSAAVSTQGLTNIVLSFTSATSGLDLGEAAIVSYSTNGSSYTTVSSERYATGSFTFNLGTAAANQSQLFLRFAIDASSTYETYAVDNIILTGDGEGGGTTCTTCIGPDPTVAALEAARGPFNTSSFGLSSWSVSGFGGGDIFYPTNAPAGPLAAIAICPGFLGTSETVDWWGPRLASHGFVVIVMDPNSVFDQPAQRATQLMACLDELEDQNNDSGSPIYGMVDSNRVGLMGHSMGGGGTLIATEDNPSVIKAAIPMAPWNMLSSNFSDITTPTLVIACEADLIAPVAQHARPFYDSIPSTVPKAFLEINNGDHLAVMNGDVFEDMLGKYGVAWMKVFLDNDQRYMQFLCGPDHESDWDISDYRSSCPY [DP024] | < 25 |
| AQSPYERGPAPTETSVRASTGPFQYAQVSVPGAGFGSGTIYYPTDTGQGTFGGVAVSPGFLSPEILIAWLGPKLASNGFVVITISTNNPGDQPDSRGEQLLAALNYLATQSPAAVRQRLDPGRLSVIGHSMGGGGALRAADSRPDLQAAIPLGGWHTNKNWSNIRVPTMVIGAQNDFIAPNDQHSQRFYTSITQAPEKAYLRPVGTGHVNVGTGTPVVGKFVLSWLKRFVDDDTRYDQFLCPTPSGSDLVEYHSTCPHT [DP014] | < 25 |
| ASLSIGGEYQVLTYTDFPDVPEFGDATIYYPLETPGTVGGVAIAPGFTERQSHIEWWGPRLASHGFAVLVLDTNERRAMPDARGDALLAAVEVLRRESAREGSPLFGRVATDKMAIMGHSMGGGGALLAANEHSDQIQAAIPFTPWEPQAVFQDITVPTLVLAGSVDRLARVDNHAWRHYQSIPESTPKAYLEVGGGNHYIADTERGTDLETI [TEP137] | < 25 |
| ASPYERGPDPSRTSIEARRGPFAVTSTSVSDLSTPGFGSATITYPTSTAEGTYGAVAVSPGFTASESTIAWLGPRLASQGFVVITFNTQSRLDQPAARGDQLLAALDYLTQRSSTTIRSRIDPTRLAVIGHSMGGGGTLEAAKDRPSLQATVGLTPWNLDKSWPEIRTPSLVIGAESDTVAPVGSHAVPFYQSIPSSTAKAYLELNNASHFAPNTENTTIASSTISWLKLYVDDDDRYRQFLCPGPQSSVTGSVSDYRNTCTS [DP050] | < 25 |
| ATASFQRGPAPSAASIRATDGPFAITRTNVARAAVSGFGGGDIYAPDDTSQGTFGAVAIAPGFTATRSSMAWLAPRIASQGFVVFNIDTLTTSDQPATRGRELLAALDFLTAQSTARAKIDKNRLAVMGHSMGGGGTLEAAKSRPALKAAVPLTPWDLTKNFAGVTVPTMIIGAQSDTIAPVRQHSERFFASLPSGADTGYLELAGASHFAPNIPNTTIASTSVAWLKRFVDEDTRFEQFLCPGPATGATVSEYETNCPHQG [DP071] | < 25 |
| ATGPSAPCTNCTRGPAPTTAALKSNTGPFTTAKFSVSGLLKGFGNSTVYYPTNTTGKMGAIAVIPGFLSYEDSIEWWGPRLASHGFVVMTMNTSTIYDQPDSRATQLSKALDYVISQSNTSSSPIYGKVDSTRLGAIGWSMGGGGSLKLSTQRSLNAIIPQAPYYAGLNSFNTIKTPALILACSADAVAPVGVHASPFYNKIPSTTPKAFLEIYGGSHFCANSGYPNQDLLGLYGISWMKRFIDFDTRYSQFLCGPNHTASGTISEYRQNCPY [ESM019] | < 25 |
| ATTAGTFGGVAISPGYTASESTIAWLGPRIASQGFVVITFNTNSRYDQPASRGDQLLAALDYLTGSSAVRARVDASRLAVMGHSMGGGGALEAAKDRPSLQAAIPLTGWNTDKTWPEVRTPTLVIGAENDSVAPVGSHSIPFYNSLTSAPERAYLELNNASHFAPNSPNTDIASSSIAWLKRYVDDDTRYTQFLCPGPSVSAFGSVSDYRATCPM [TEP154] | < 25 |
| ATTSFRRGPDPSAASIRAANGPFAIAKTTVARQAGFGGGDIYAPTDTSRGTFGAVAIAPGFTATRSSLAWLAPRIASQGFVVFNIDTLTTSDQPAQRGRELLAALDFLTGSSTARAKIDRTRLAVMGHSMGGGGTLEAAKARPSLKAAVPLTPWDLTKNFATVKVPTMIIGAQSDTIAPPSRFSDQFFASLPAATNKGYLELAGASHFAPNIPNPTIASTSIAWLKRFVDGDTRFEQFLCPGPSSNGISEYQTNCPHKA [ESM129] | < 25 |
| ATTTLLAESFDNGFGVFSAQGYASTDNGVAVLRGGSADGTITSGAVPAAGQTNLTLSWTQTTSRLDAGESLVVEWSTGSSWSSLSSERSSGVLSVGLPTAAASNALQLRFRVDASSYYERVDVDDVVLTAGDGGGSGNPYAKGPDPTWNSIEATTGPFEVDDYDISSFAADGFGGADVYYPSDAGSATFGGIAISPGYTASRSTVTWLGPRIASQGFVVIVIDTNSRYDQPASRGDQLLAALDQLVNDSDVSHLVDPNRLAVMGHSMGGGGSLEAADDRPSLRAIVPLQGWNSDKTWSQVQVPALLIGGENDSVAPDSSHSQRFYDSLGGEKVYLQLNNASHFASNSPNTTIASYSIAWLKRWVDEDTRYSQFVCGPDAGQGSAISDYRTTCPV [DP065] | < 25 |

Source: the supplement of paper PMC12455559
